Reference: paper PMC2816707, “A Humanized Anti-VEGF Rabbit Monoclonal Antibody Inhibits Angiogenesis and Blocks Tumor Growth in Xenograft Models” (PLoS ONE, 2010)
Positions count from the first letter of the chain named.

How the values were obtained:
[1] = biological target: T1, Recombinant human VEGF165 (human, UniProt P15692-4, strain); experiment: SPR; BIAcore 3000; antibodies immobilised on CM5 chips by amine coupling (about 600 RU); VEGF165 (R&D Systems) injected at 0.2 to 50 nM, 35 µl/min, 25°C, HBS-P (10 mM HEPES pH 7.4, 150 mM NaCl, 0.005% P20); 1:1 binding model, global fit; settings: both partners purified
T1 construct: also called human vascular endothelial growth factor-A; VEGF-A165; source: bought: Shanghai Primegene Bio-Tech Co. and R&D System

[2] = biological target: T1, Recombinant human VEGF165; experiment: cell-based or functional assay
Target sequence in this assay (P15692 whole entry, looked up, stated change not applied): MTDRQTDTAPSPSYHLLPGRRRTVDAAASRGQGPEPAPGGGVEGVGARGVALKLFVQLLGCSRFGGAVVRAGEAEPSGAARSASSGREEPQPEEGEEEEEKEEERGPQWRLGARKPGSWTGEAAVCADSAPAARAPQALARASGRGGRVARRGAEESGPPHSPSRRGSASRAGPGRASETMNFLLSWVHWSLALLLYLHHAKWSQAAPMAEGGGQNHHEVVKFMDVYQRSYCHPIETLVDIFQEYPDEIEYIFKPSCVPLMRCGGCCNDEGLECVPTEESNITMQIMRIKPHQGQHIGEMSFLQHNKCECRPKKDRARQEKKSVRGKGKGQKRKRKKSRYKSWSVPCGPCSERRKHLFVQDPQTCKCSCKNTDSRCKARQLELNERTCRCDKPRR

[3] = biological target: T1, Recombinant human VEGF165; experiment: ELISA; VEGF/VEGFR-2 interaction ELISA: 5 µg/ml Fc-VEGFR-2 (ECD) coated; antibody pre-incubated 1 hour with recombinant human VEGF (0.5 µg/ml final) before transfer to the plate; bound VEGF detected by a mouse anti-VEGF165 monoclonal antibody; triplicates; settings: both partners purified
[4] = biological target: T1, Recombinant human VEGF165; experiment: SPR; BIAcore 3000; antibodies immobilised on CM5 chips by amine coupling (about 600 RU); VEGF165 (R&D Systems) injected at 0.2 to 50 nM, 35 µl/min, 25°C, HBS-P (10 mM HEPES pH 7.4, 150 mM NaCl, 0.005% P20); 1:1 binding model, global fit; settings: both partners purified; remark: listed apart in the source
[5] = biological target: T2, rabbit IgG Fc-hVEGF (human VEGF165) fusion protein, wild type (human, UniProt P15692-4); experiment: ELISA; VEGF capture ELISA: Fc-VEGF supernatants captured on coated goat anti-rabbit IgG (H+L); hEBV321 at various concentrations, 1 hr at 37°C; detected by anti-human IgG alkaline phosphatase; settings: one partner purified
T2 construct: also called Fc-VEGF; VEGF wild type; source: HEK-293E cells, transient transfection, cleared culture supernatant; not shown: Fc (rabbit IgG), N-terminal, kept

[6] = biological target: T1, Recombinant human VEGF165; experiment: ELISA; direct competition ELISA: human VEGF-A165 coated (0.05 µg/ml); reference antibody (0.04 µg/ml) mixed with increasing concentration of competitor, 1 hr at room temperature; bound reference antibody detected by anti-rabbit IgG Fc secondary antibody, chemiluminescence; settings: both partners purified
Target sequence in this assay (P15692 whole entry, looked up, stated change not applied): as above

[7] = biological target: T1, Recombinant human VEGF165; experiment: ELISA; VEGF/VEGFR-2 interaction ELISA: 5 µg/ml Fc-VEGFR-2 (ECD) coated; antibody pre-incubated 1 hour with recombinant human VEGF (0.5 µg/ml final) before transfer to the plate; bound VEGF detected by a mouse anti-VEGF165 monoclonal antibody; triplicates; settings: both partners purified; remark: listed apart in the source
[8] = biological target: T1, Recombinant human VEGF165; experiment: ELISA; antigen binding ELISA with the antigen coated on a 96-well plate; paired H and L chains of the 15 antibodies; grades against background reading
Target sequence in this assay (P15692 whole entry, looked up, stated change not applied): as above

T2 sequence (P15692 other isoform, or with tags, fused parts or gaps): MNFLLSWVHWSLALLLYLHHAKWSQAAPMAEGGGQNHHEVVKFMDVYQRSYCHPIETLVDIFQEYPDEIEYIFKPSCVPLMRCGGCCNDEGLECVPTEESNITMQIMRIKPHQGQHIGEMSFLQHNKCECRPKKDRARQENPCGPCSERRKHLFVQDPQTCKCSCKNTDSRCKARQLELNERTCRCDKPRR

B1: humanized EBV321 (antibody, V domains shown)
VH: EVQLVESGGGLVKPGGSLRLSCAASGFSFSNNDVMCWVRQAPGKGLEWIGCIMTTDVVTEYANWAKSRFTVSRDSAKNSVYLQMNSLRAEDTAVYFCARDSVGSPLMSFDLWGPGTLVTVSS
VL: DIQMTQSPSSLSASVGDRVTINCQASQSIYNNNELSWYQQKPGKPPKLLIYRASTLASGVPSRFSGSGSGTDFTLTISSLQPEDVATYYCGGYKSYSNDGNGFGGGTKVEIK
notes: also called hEBV321; humanized anti-VEGF RabMAb; source: 293-6E cells, L and H chain plasmids co-transfected, purified (protein A)
[1]
  Kd: 11.9 pM
[2]
  IC50 of inhibition of VEGF-stimulated HUVEC proliferation: 8 pM
[3]
  IC50: 3200 pM
[4]
  Kd: 11.5 pM
  koff: 1.88e-05 s⁻¹
  kon: 1.63e+06 M⁻¹ s⁻¹
[5]
  binding result: binds
[6]
  inhibition of EBV321 binding to VEGF at 5 fold excess: 50%

B2: anti-VEGF RabMAb EBV321 (antibody, V domains shown)
VH: QSLEESGGDLVKPGASLTLSCTASGFSFSNNDVMCWVRQAPGKGLEWIGCIMTTDVVTEYANWAKSRFTVSKTSSSTVTLQLTSLTVADTATYFCARDSVGSPLMSFDLWGPGTLVTVSS
VL: LVMTQTPASVSAAVGGTVTINCQASQSVYGNNELSWYQQKPGQPPKLLIYRASTLASGVPSRFSGSGSGTQFTLTISGVQCADAATYYCGGYKSYSNDGNGFGGGTEVVVK
notes: also called parental EBV321; source: 293-6E cells, L and H chain plasmids co-transfected, purified (protein A)
[7]
  IC50: 560 pM
[2]
  IC50 of inhibition of VEGF-stimulated HUVEC proliferation: 39 pM
[3]
  IC50: 4100 pM
[4]
  Kd: 419 pM
  koff: 0.00119 s⁻¹
  kon: 2.85e+06 M⁻¹ s⁻¹

B3: heavy chain of EBV320 paired with light chain of EBV321 (antibody, V domains shown)
VH: B2 VH with S20T, D32A, S76T, L82M
VL: B2 VL
notes: also called 320H/321L
[8]
  binding result: binds

B4: heavy chain of EBV307 paired with light chain of EBV321 (antibody, V domains shown)
VH: B2 VH with L3V, D9G, A15G, S16T, S20T, A23V, E59A, K72R, S76T, L82V
VL: B2 VL
notes: also called 307H/321L
[8]
  binding result: binds

B5: heavy chain of EBV321 paired with light chain of EBV302 (antibody, V domains shown)
VH: B2 VH
VL: B2 VL with T19I, S27N, V28L, G30N, R51W, S64K, G90A, D98G
[8]
  binding result: binds

B6: heavy chain of EBV307 paired with light chain of EBV320 (antibody, V domains shown)
VH: B2 VH with L3V, D9G, A15G, S16T, S20T, A23V, E59A, K72R, S76T, L82V
VL: B2 VL with S27N, V28L, G30N, R51W, S64K, G90A
notes: also called 307H/320L
[8]
  binding result: binds

B7: heavy chain of EBV321 paired with light chain of EBV320 (antibody, V domains shown)
VH: B2 VH
VL: B2 VL with S27N, V28L, G30N, R51W, S64K, G90A
[8]
  binding result: binds

B8: heavy chain of EBV307 paired with light chain of EBV302 (antibody, V domains shown)
VH: B2 VH with L3V, D9G, A15G, S16T, S20T, A23V, E59A, K72R, S76T, L82V
VL: B2 VL with T19I, S27N, V28L, G30N, R51W, S64K, G90A, D98G
notes: also called 307H/302L
[8]
  binding result: binds

B9: heavy chain of EBV302 paired with light chain of EBV321 (antibody, V domains shown)
VH: B2 VH with S20T, D32A, S76T, L82M
VL: B2 VL
notes: also called 302H/321L
[8]
  binding result: binds

B10: heavy chain of EBV320 paired with light chain of EBV307 (antibody, V domains shown)
VH: B2 VH with S20T, D32A, S76T, L82M
VL: B2 VL with P44R, A82F, G90S, S96Y, N100S
notes: also called 320H/307L
[8]
  binding result: binds

B11: heavy chain of EBV302 paired with light chain of EBV307 (antibody, V domains shown)
VH: B2 VH with S20T, D32A, S76T, L82M
VL: B2 VL with P44R, A82F, G90S, S96Y, N100S
notes: also called 302H/307L
[8]
  binding result: binds

B12: anti-VEGF RabMAb EBV302 (antibody, V domains shown)
VH: B2 VH with S20T, D32A, S76T, L82M
VL: B2 VL with T19I, S27N, V28L, G30N, R51W, S64K, G90A, D98G
notes: also called 302H/302L; source: 293-6E cells, L and H chain plasmids co-transfected, purified (protein A)
[7]
  IC50: 25200 pM

B13: anti-VEGF RabMAb EBV320 (antibody, V domains shown)
VH: B2 VH with S20T, D32A, S76T, L82M
VL: B2 VL with S27N, V28L, G30N, R51W, S64K, G90A
notes: also called 320H/320L; source: 293-6E cells, L and H chain plasmids co-transfected, purified (protein A)
[7]
  IC50: 3320 pM

B14: anti-VEGF RabMAb EBV307 (antibody, V domains shown)
VH: B2 VH with L3V, D9G, A15G, S16T, S20T, A23V, E59A, K72R, S76T, L82V
VL: B2 VL with P44R, A82F, G90S, S96Y, N100S
notes: also called 307H/307L; source: 293-6E cells, L and H chain plasmids co-transfected, purified (protein A)
[7]
  IC50: 2620 pM

B15: heavy chain of EBV321 paired with light chain of EBV307 (antibody, V domains shown)
VH: B2 VH
VL: B2 VL with P44R, A82F, G90S, S96Y, N100S
[8]
  binding result: binds
